Source: the supplement of paper PMC5998384

Legend:
HeLa Kyoto [1] = assay: thermal stability score vs G1/S (z-score of summed log2 fold changes over temperatures); higher = more thermally stable than in G1/S
HeLa Kyoto [2] = assay: solubility in G1/S (NP-40 vs SDS abundance) (log2 ratio); higher = more soluble; details: cell cycle stage: G1/S
HeLa Kyoto [3] = assay: melting temperature (median over replicates), in situ; higher = more thermally stable
HeLa Kyoto [4] = assay: solubility change mitosis vs G1/S (difference of NP-40 vs SDS log2 ratios) (log2 ratio difference); higher = more soluble in mitosis
[5] = cell cycle stage: early G1 (4.5 h after nocodazole release)
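Wherever melting temperature (median over replicates), in situ is given: HeLa Kyoto cells synchronized by double thymidine or nocodazole block, proteins quantified by TMT10plex mass spectrometry, three independent biological replicates.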
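Wherever solubility change mitosis vs G1/S (difference of NP-40 vs SDS log2 ratios) is given: synchronized HeLa Kyoto cells (double thymidine block for G1/S, nocodazole release for mitosis), protein amounts in NP-40 versus SDS lysates quantified by mass spectrometry, three biological replicates.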
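Wherever solubility in G1/S (NP-40 vs SDS abundance) is given: HeLa Kyoto cells arrested at G1/S by double thymidine block, proteins quantified by TMT10plex mass spectrometry in mild NP-40 versus SDS extracts, three biological replicates.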
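Wherever thermal stability score vs G1/S (z-score of summed log2 fold changes over temperatures) is given: synchronized HeLa Kyoto cells, proteins quantified by TMT10plex mass spectrometry, three biological replicates, mitosis taken 0.5 h after nocodazole release, G1/S directly after double thymidine block.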

Sequence of REEP5 (chain, as listed by the source): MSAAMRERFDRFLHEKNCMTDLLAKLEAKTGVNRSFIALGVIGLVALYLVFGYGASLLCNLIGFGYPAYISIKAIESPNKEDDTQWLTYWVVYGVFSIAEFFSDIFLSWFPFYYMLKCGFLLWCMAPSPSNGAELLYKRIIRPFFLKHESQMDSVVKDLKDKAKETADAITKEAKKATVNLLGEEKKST
Sequence of STRIP1 (chain, as listed by the source): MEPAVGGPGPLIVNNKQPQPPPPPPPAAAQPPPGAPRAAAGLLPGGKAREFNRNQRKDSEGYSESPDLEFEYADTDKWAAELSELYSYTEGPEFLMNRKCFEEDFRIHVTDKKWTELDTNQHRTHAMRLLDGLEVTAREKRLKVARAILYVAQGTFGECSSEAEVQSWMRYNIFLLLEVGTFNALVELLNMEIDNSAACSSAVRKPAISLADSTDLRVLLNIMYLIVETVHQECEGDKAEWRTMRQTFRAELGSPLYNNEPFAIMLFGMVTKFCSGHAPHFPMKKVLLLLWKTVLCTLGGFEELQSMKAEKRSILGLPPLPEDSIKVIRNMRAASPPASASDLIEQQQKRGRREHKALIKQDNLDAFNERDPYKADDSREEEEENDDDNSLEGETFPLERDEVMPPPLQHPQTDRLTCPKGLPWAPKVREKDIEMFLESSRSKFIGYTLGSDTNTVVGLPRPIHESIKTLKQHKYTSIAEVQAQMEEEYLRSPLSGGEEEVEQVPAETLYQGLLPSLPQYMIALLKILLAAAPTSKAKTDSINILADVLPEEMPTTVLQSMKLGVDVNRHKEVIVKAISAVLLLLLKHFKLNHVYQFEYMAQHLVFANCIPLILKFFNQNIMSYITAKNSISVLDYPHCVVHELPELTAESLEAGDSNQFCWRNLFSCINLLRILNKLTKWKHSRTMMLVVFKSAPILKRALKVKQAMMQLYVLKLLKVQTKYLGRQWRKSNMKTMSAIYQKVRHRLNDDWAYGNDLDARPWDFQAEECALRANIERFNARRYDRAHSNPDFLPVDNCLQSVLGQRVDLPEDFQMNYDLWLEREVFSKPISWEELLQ

Row | Substance | thermal stability score (HeLa Kyoto [1]; [5]) | thermal stability score (HeLa Kyoto [1]; cell cycle stage: mitosis) | solubility in G1/S (log2) (HeLa Kyoto [2]) | melting temperature (HeLa Kyoto [3]; cell cycle stage: G1/S) [°C] | melting temperature (HeLa Kyoto [3]; cell cycle stage: mitosis) [°C] | solubility change mitosis (log2) (HeLa Kyoto [4])
1 | MAGTGLVAGEVVVDALPYFDQGYEAPGVREAAAALVEEETRRYRPTKNYLSYLTAPDYSAFETDIMRNEFERLAARQPIELLSMKRYELPAPSSGQKNDITAWQECVNNSMAQLEHQAVRIENLELMSQHGCNAWKVYNENLVHMIEHAQKELQKLRKHIQDLNWQRKNMQLTAGSKLREMESNWVSLVSKNYEIERTIVQLENEIYQIKQQHGEANKENIRQDF [BCAS2] | -0.858 | -0.925 | -0.134 | 50.4 | 50.3 | 0.721
2 | MEIGTEISRKIRSAIKGKLQELGAYVDEELPDYIMVMVANKKSQDQMTEDLSLFLGNNTIRFTVWLHGVLDKLRSVTTEPSSLKSSDTNIFDSNVPSNKSNFSRGDERRHEAAVPPLAIPSARPEKRDSRVSTSSQESKTTNVRQTYDDGAATRLMSTVKPLREPAPSEDVIDIKPEPDDLIDEDLNFVQENPLSQKKPTVTLTYGSSRPSIEIYRPPASRNADSGVHLNRLQFQQQQNSIHAAKQLDMQSSWVYETGRLCEPEVLNSLEETYSPFFRNNSEKMSMEDENFRKRKLPVVSSVVKVKKFNHDGEEEEEDDDYGSRTGSISSSVSVPAKPERRPSLPPSKQANKNLILKAISEAQESVTKTTNYSTVPQKQTLPVAPRTRTSQEELLAEVVQGQSRTPRISPPIKEEETKGDSVEKNQGTQQRQLLSRLQIDPVMAETLQMSQDYYDMESMVHADTRSFILKKPKLSEEVVVAPNQESGMKTADSLRVLSGHLMQTRDLVQPDKPASPKFIVTLDGVPSPPGYMSDQEEDMCFEGMKPVNQTAASNKGLRGLLHPQQLHLLSRQLEDPNGSFSNAEMSELSVAQKPEKLLERCKYWPACKNGDECAYHHPISPCKAFPNCKFAEKCLFVHPNCKYDAKCTKPDCPFTHVSRRIPVLSPKPAVAPPAPPSSSQLCRYFPACKKMECPFYHPKHCRFNTQCTRPDCTFYHPTINVPPRHALKWIRPQTSE [ZC3H14] | -0.823 | 0.321 | -0.475 | 49.7 | 51.2 | 0.656
3 | MSSSLGKEKDSKEKDPKVPSAKEREKEAKASGGFGKESKEKEPKTKGKDAKDGKKDSSAAQPGVAFSVDNTIKRPNPAPGTRKKSSNAEVIKELNKCREENSMRLDLSKRSIHILPSSIKELTQLTELYLYSNKLQSLPAEVGCLVNLMTLALSENSLTSLPDSLDNLKKLRMLDLRHNKLREIPSVVYRLDSLTTLYLRFNRITTVEKDIKNLSKLSMLSIRENKIKQLPAEIGELCNLITLDVAHNQLEHLPKEIGNCTQITNLDLQHNELLDLPDTIGNLSSLSRLGLRYNRLSAIPRSLAKCSALEELNLENNNISTLPESLLSSLVKLNSLTLARNCFQLYPVGGPSQFSTIYSLNMEHNRINKIPFGIFSRAKVLSKLNMKDNQLTSLPLDFGTWTSMVELNLATNQLTKIPEDVSGLVSLEVLILSNNLLKKLPHGLGNLRKLRELDLEENKLESLPNEIAYLKDLQKLVLTNNQLTTLPRGIGHLTNLTHLGLGENLLTHLPEEIGTLENLEELYLNDNPNLHSLPFELALCSKLSIMSIENCPLSHLPPQIVAGGPSFIIQFLKMQGPYRAMV [SHOC2] | -0.46 | -1.35 | 0.421 | 52.2 | 52.4 | -0.0856
4 | MRKMLAAVSRVLSGASQKPASRVLVASRNFANDATFEIKKCDLHRLEEGPPVTTVLTREDGLKYYRMMQTVRRMELKADQLYKQKIIRGFCHLCDGQEACCVGLEAGINPTDHLITAYRAHGFTFTRGLSVREILAELTGRKGGCAKGKGGSMHMYAKNFYGGNGIVGAQVPLGAGIALACKYNGKDEVCLTLYGDGAANQGQIFEAYNMAALWKLPCIFICENNRYGMGTSVERAAASTDYYKRGDFIPGLRVDGMDILCVREATRFAAAYCRSGKGPILMELQTYRYHGHSMSDPGVSYRTREEIQEVRSKSDPIMLLKDRMVNSNLASVEELKEIDVEVRKEIEDAAQFATADPEPPLEELGYHIYSSDPPFEVRGANQWIKFKSVS [PDHA1] | -1.47 | -2.37 | 0.149 | 52.1 | 51.5 | -0.122
5 | MGKGCKVVVCGLLSVGKTAILEQLLYGNHTIGMEDCETMEDVYMASVETDRGVKEQLHLYDTRGLQEGVELPKHYFSFADGFVLVYSVNNLESFQRVELLKKEIDKFKDKKEVAIVVLGNKIDLSEQRQVDAEVAQQWAKSEKVRLWEVTVTDRKTLIEPFTLLASKLSQPQSKSSFPLPGRKNKGNSNSEN [NKIRAS1] | 2.91e-19 | -1.95e-17 | 0.0841 | 48.9 | 48.6 | -0.0109
6 | MLARAARGTGALLLRGSLLASGRAPRRASSGLPRNTVVLFVPQQEAWVVERMGRFHRILEPGLNILIPVLDRIRYVQSLKEIVINVPEQSAVTLDNVTLQIDGVLYLRIMDPYKASYGVEDPEYAVTQLAQTTMRSELGKLSLDKVFRERESLNASIVDAINQAADCWGIRCLRYEIKDIHVPPRVKESMQMQVEAERRKRATVLESEGTRESAINVAEGKKQAQILASEAEKAEQINQAAGEASAVLAKAKAKAEAIRILAAALTQHNGDAAASLTVAEQYVSAFSKLAKDSNTILLPSNPGDVTSMVAQAMGVYGALTKAPVPGTPDSLSSGSSRDVQGTDASLDEELDRVKMS [STOML2] | -3.41 | -3.22 | 0.262 | 56.9 | 59.3 | 0.0559
7 | MARSVRVLVDMDGVLADFEAGLLRGFRRRFPEEPHVPLEQRRGFLAREQYRALRPDLADKVASVYEAPGFFLDLEPIPGALDAVREMNDLPDTQVFICTSPLLKYHHCVGEKYRWVEQHLGPQFVERIILTRDKTVVLGDLLIDDKDTVRGQEETPSWEHILFTCCHNRHLVLPPTRRRLLSWSDNWREILDSKRGAAQRE [NT5C] | -0.241 | -1.24 | 0.0484 | 55.9 | 57 | -0.172
8 | MDAPRQVVNFGPGPAKLPHSVLLEIQKELLDYKGVGISVLEMSHRSSDFAKIINNTENLVRELLAVPDNYKVIFLQGGGCGQFSAVPLNLIGLKAGRCADYVVTGAWSAKAAEEAKKFGTINIVHPKLGSYTKIPDPSTWNLNPDASYVYYCANETVHGVEFDFIPDVKGAVLVCDMSSNFLSKPVDVSKFGVIFAGAQKNVGSAGVTVVIVRDDLLGFALRECPSVLEYKVQAGNSSLYNTPPCFSIYVMGLVLEWIKNNGGAAAMEKLSSIKSQTIYEIIDNSQGFYVCPVEPQNRSKMNIPFRIGNAKGDDALEKRFLDKALELNMLSLKGHRSVGGIRASLYNAVTIEDVQKLAAFMKKFLEMHQL [PSAT1] | -0.482 | -0.769 | 0.15 | 55.6 | 55.6 | -0.136
9 | MAKRNAEKELTDRNWDQEDEAEEVGTFSMASEEVLKNRAIKKAKRRNVGFESDTGGAFKGFKGLVVPSGGGRFSGFGSGAGGKPLEGLSNGNNITSAPPFASAKAAADPKVAFGSLAANGPTTLVDKVSNPKTNGDSQQPSSSGLASSKACVGNAYHKQLAALNCSVRDWIVKHVNTNPLCDLTPIFKDYEKYLANIEQQHGNSGRNSESESNKVAAETQSPSLFGSTKLQQESTFLFHGNKTEDTPDKKMEVASEKKTDPSSLGATSASFNFGKKVDSSVLGSLSSVPLTGFSFSPGNSSLFGKDTTQSKPVSSPFPTKPLEGQAEGDSGECKGGDEEENDEPPKVVVTEVKEEDAFYSKKCKLFYKKDNEFKEKGIGTLHLKPTANQKTQLLVRADTNLGNILLNVLIPPNMPCTRTGKNNVLIVCVPNPPIDEKNATMPVTMLIRVKTSEDADELHKILLEKKDA [NUP50] | -1.56 | -1.75 | 0.204 | 51.9 | 52.8 | 0.0955
10 | NUP98 | -1.52 | -1.57 | -0.162 | 48.4 | 48.6 | 0.26
11 | MDGLLNPRESSKFIAENSRDVFIDSGGVRRVAELLLAKAAGPELRVEGWKALHELNPRAADEAAVNWVFVTDTLNFSFWSEQDEHKCVVRYRGKTYSGYWSLCAAVNRALDEGIPITSASYYATVTLDQVRNILRSDTDVSMPLVEERHRILNETGKILLEKFGGSFLNCVRESENSAQKLMHLVVESFPSYRDVTLFEGKRVSFYKRAQILVADTWSVLEGKGDGCFKDISSITMFADYRLPQVLAHLGALKYSDDLLKKLLKGEMLSYGDRQEVEIRGCSLWCVELIRDCLLELIEQKGEKPNGEINSILLDYYLWDYAHDHREDMKGIPFHRIRCIYY [C9ORF64] | -1.65 | 0.153 | -0.318 | 50.2 | 49.7 | -0.283
12 | MSYTPGVGGDPAQLAQRISSNIQKITQCSVEIQRTLNQLGTPQDSPELRQQLQQKQQYTNQLAKETDKYIKEFGSLPTTPSEQRQRKIQKDRLVAEFTTSLTNFQKVQRQAAEREKEFVARVRASSRVSGSFPEDSSKERNLVSWESQTQPQVQVQDEEITEDDLRLIHERESSIRQLEADIMDINEIFKDLGMMIHEQGDVIDSIEANVENAEVHVQQANQQLSRAADYQRKSRKTLCIIILILVIGVAIISLIIWGLNH [STX7] | -1.45 | -2.01 | 0.637 | 54.1 | 55 | 0.264
13 | STRIP1 | 0.575 | 0.412 | 0.0221 | 51.3 | 49.6 | -0.214
14 | MAASKPVEAAVVAAAVPSSGSGVGGGGTAGPGTGGLPRWQLALAVGAPLLLGAGAIYLWSRQQRRREARGRGDASGLKRNSERKTPEGRASPAPGSGHPEGPGAHLDMNSLDRAQAAKNKGNKYFKAGKYEQAIQCYTEAISLCPTEKNVDLSTFYQNRAAAFEQLQKWKEVAQDCTKAVELNPKYVKALFRRAKAHEKLDNKKECLEDVTAVCILEGFQNQQSMLLADKVLKLLGKEKAKEKYKNREPLMPSPQFIKSYFSSFTDDIISQPMLKGEKSDEDKDKEGEALEVKENSGYLKAKQYMEEENYDKIISECSKEIDAEGKYMAEALLLRATFYLLIGNANAAKPDLDKVISLKEANVKLRANALIKRGSMYMQQQQPLLSTQDFNMAADIDPQNADVYHHRGQLKILLDQVEEAVADFDECIRLRPESALAQAQKCFALYRQAYTGNNSSQIQAAMKGFEEVIKKFPRCAEGYALYAQALTDQQQFGKADEMYDKCIDLEPDNATTYVHKGLLQLQWKQDLDRGLELISKAIEIDNKCDFAYETMGTIEVQRGNMEKAIDMFNKAINLAKSEMEMAHLYSLCDAAHAQTEVAKKYGLKPPTL [TOMM70A] | 2.06 | 2.92 | 0.504 | 50.4 | 50.1 | 0.0273
15 | REEP5 | -0.45 | -0.719 | -0.148 | 55.4 | 57.6 | -0.114
16 | MAFLRSMWGVLSALGRSGAELCTGCGSRLRSPFSFVYLPRWFSSVLASCPKKPVSSYLRFSKEQLPIFKAQNPDAKTTELIRRIAQRWRELPDSKKKIYQDAYRAEWQVYKEEISRFKEQLTPSQIMSLEKEIMDKHLKRKAMTKKKELTLLGKPKRPRSAYNVYVAERFQEAKGDSPQEKLKTVKENWKNLSDSEKELYIQHAKEDETRYHNEMKSWEEQMIEVGRKDLLRRTIKKQRKYGAEEC [TFAM] | -1.96 | -1.16 | 0.578 | 53.1 | 53 | 0.546
17 | MQDTGSVVPLHWFGFGYAALVASGGIIGYVKAGSVPSLAAGLLFGSLAGLGAYQLSQDPRNVWVFLATSGTLAGIMGMRFYHSGKFMPAGLIAGASLLMVAKVGVSMFNRPH [TMEM14C] | -3.8e-18 | -4.49e-20 | 0.356 | – | 54.3 | 0.206
